Consider one molecule from patent US20180171313A1 (NOVOZYMES A S, published 2018).

The target in this experiment is T1, chaperone fusion protein (Chap-MBP): 6x histidine tag, E. coli maltose binding protein, linker and mature G. … (Gallaecimonas pentaromativorans …).
T1 construct: also called LIF
Description: lipase refolded with the chaperone fusion protein, examined as the complex by differential scanning calorimetry. The procedure:
Sample- and reference-solutions (approx. 0.2 ml) were loaded into the calorimeter (reference: buffer without enzyme) from storage conditions at 10° C. and thermally pre-equilibrated for 20 minutes at 20° C. prior to DSC scan from 20° C. to 100° C. Denaturation temperatures were determined at an accuracy of approximately +/−1° C.
In complex with the chaperone fusion protein, the thermostability of the lipase was high with a Td value in the range of 79.9-94.1° C. In a non-parallel trial under similar experimental conditions the thermostability of Lipolase was measured to have a Td value of 77.0° C.
For orientation: DSC measures the heat that a sample takes up or gives off during a temperature scan.

B1: Gallaecimonas pentaromativorans lipase (lipase of the invention), mature part (enzyme)
chain: SGYTQTKYPIVLVHGLFGFDSLAGVDYWYGIPQALSQDGATVYVVNVSAANSTEVRGEQLLVQIDNILALTGAKKVNLIGHSHGGPTARYAASISPGKVASVTSVGGVNWGSRFADALRGTIAPGSVSESVIGAAANAFSSIIEFLSGTPADPQDSVAALNALTTAGSLAFNASYPEGMPSQYCGQGQMQAANGVYYFSWSGASPLTNVLDVTDAALGLTSLVFGESNDGLVSSCSSHLGKVIRDDYAMNHLDEVNQTFGLVSLFETNPKTLYRNQANRLKNLGL
notes: The forward primer adds an ATG start codon through its NdeI site; also called G. pentaromativorans lipase
With B1, the binding result is listed as “binds”.
